Reference: patent publication US20260167718A1 (Merck Sharp & Dohme, published 2026)

Columns and labels:
[1] = molecular target: T1, Rhesus monkey ILT3 expressed on CHO-K1 cells (rhesus monkey (Macaca mulatta)); experiment: cELISA, CHO rhesus ILT3 cells
T1 construct: whole, on cells; also called rhILT3; CHO-rhesus ILT3

[2] = molecular target: T2, rhesus ILT3-His tagged recombinant protein (rhesus monkey (Macaca mulatta)); experiment: SPR (Biacore), rhesus ILT3-His
T2 construct: also called ILT3_MM; not shown: His tag
T2 chain: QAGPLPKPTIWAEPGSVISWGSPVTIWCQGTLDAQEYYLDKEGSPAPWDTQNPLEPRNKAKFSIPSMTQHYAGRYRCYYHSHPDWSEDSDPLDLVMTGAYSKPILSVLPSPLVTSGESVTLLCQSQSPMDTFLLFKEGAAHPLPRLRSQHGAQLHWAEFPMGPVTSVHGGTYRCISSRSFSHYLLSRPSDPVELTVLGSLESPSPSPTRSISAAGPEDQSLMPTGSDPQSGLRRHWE
Method: (§1) The binding kinetics and affinities of anti-human ILT3 clones for human or rhesus ILT3-His tagged recombinant protein were measured by surface plasmon resonance using a Biacore™ T200 system (GE Healthcare, Piscataway, NJ). HBS-EP+ buffer (BR-1006-69) was used as the running buffer. Anti-human Fc antibody (Human Fc Capture Kit, BR100839, GE Healthcare) was immobilized via amine coupling chemistry in all four flow cells on a Series S CM5 sensor chip (BR100530 or 29149603, GE Healthcare) following manufacturer instructions. Flow cell 1 was used as reference for background subtraction and was not used for capture. […] Following each injection cycle, all four flow cells were regenerated using 30 second injection of 3M MgCl₂ solution at a flow rate of 10 μL/minute. Reference subtracted sensorgrams were fit to a 1:1 Langmuir Binding Model in the Biacore™ T200 Evaluation Software (Version 2.0) to determine the association (ka) and dissociation (kd) rate constants and the equilibrium dissociation constant KD (=kd/ka).

[3] = molecular target: T3, Human ILT3 (LILRB4) extracellular domain with C-terminal His Tag (human, UniProt Q8NHJ6 22-259); experiment: SPR (Biacore), human ILT3-His
T3 construct: the claims count residues 1-238 as the extracellular domain; also called human ILT3-His; ILT3_H
Method: as §1

[4] = molecular target: T4, human ILT3 expressed on cells (human, UniProt Q8NHJ6 22-448); experiment: cELISA, CHO human ILT3 cells
T4 construct: whole, on cells; also called huILT3; LILRB4

[5] = molecular target: T2, rhesus ILT3-His tagged recombinant …; experiment: Biacore SPR, column rhILT3 KD (nM)
[6] = molecular target: T3, Human ILT3 (LILRB4) extracellular …; experiment: Biacore SPR, column huILT3 KD (nM)

Row | Binder | EC50 [1] [µg/mL] | Kd [2] [nM] | Kd [3] [nM] | EC50 [4] [µg/mL] | Kd [5] [nM] | Kd [6] [nM]
1 | Humanized anti-ILT3 mAb (52B8 VH2 M64V/VL2) IgG4 S228P/Kappa (antibody, V domains shown, also called mAb 14) VH: EVQLVESGGGLVQPGGSLRLSCAASGFTFSNYGMSWVRQAPGKGLEWVATISGGGDYTNYPDSVRGRFTISRDNAKNSLYLQMNSLKAEDTAVYYCGRRLWFRSLYYAMDYWGQGTLVTVSS VL: DIVLTQSPDSLAVSLGERATINCRASEKVDSFGNSFMHWYQQKPGQPPKLLIYLTSNLDSGVPDRFSGSGSGTDFTLTISSLQAEDVAVYYCQQNNEDPYTFGQGTKLEIKR | 0.126 | 22 | 1 | 0.077 |  | 
2 | Humanized anti-ILT3 mAb (52B8 VH1/VL2) IgG4 S228P/Kappa (antibody, V domains shown, also called mAb 2) VH: EVQLVESGGGLVQPGGSLRLSCAASGFTFSNYGMSWVRQAPGKGLEWVATISGGGDYTNYPDSMRGRFTISRDNAKNSLYLQMNSLRAEDTAVYYCGRRLWFRSLYYAMDYWGQGTLVTVSS VL: DIVLTQSPDSLAVSLGERATINCRASEKVDSFGNSFMHWYQQKPGQPPKLLIYLTSNLDSGVPDRFSGSGSGTDFTLTISSLQAEDVAVYYCQQNNEDPYTFGQGTKLEIKR | 0.109 | 20 | 1.1 | 0.7 |  | 
3 | Chimeric anti-ILT3 52B8 mouse VH M64L/human IgG4 (S228P):mouse VL/human Kappa (antibody, V domains shown, also called mAb 75) VH: EVQLVESGGDLVKPGGSLKLSCAASGFTFSNYGMSWVRQTPDRRLEWVATISGGGDYTNYPDSLRGRFTISRDNAKNTLYLQMSSLKSEDTAMYYCGRRLWFRSLYYAMDYWGQGTSVTVSS VL: NIVLTQSPASLAVSLGQRATISCRASEKVDSFGNSFMHWYQQKPGQPPKLLIYLTSNLDSGVPARFSGSGSRTDFALTIDPVEADDAATYYCQQNNEDPYTFGGGTKLEIKR | 0.137 | 9.3 | 0.41 | 0.086 |  | 
4 | Chimeric anti-ILT3 52B8 mouse VH M64V/human IgG4 (S228P):mouse VL/human Kappa (antibody, V domains shown, also called mAb 74) VH: EVQLVESGGDLVKPGGSLKLSCAASGFTFSNYGMSWVRQTPDRRLEWVATISGGGDYTNYPDSVRGRFTISRDNAKNTLYLQMSSLKSEDTAMYYCGRRLWFRSLYYAMDYWGQGTSVTVSS VL: NIVLTQSPASLAVSLGQRATISCRASEKVDSFGNSFMHWYQQKPGQPPKLLIYLTSNLDSGVPARFSGSGSRTDFALTIDPVEADDAATYYCQQNNEDPYTFGGGTKLEIKR | 0.096 | 9.2 | 0.44 | 0.075 |  | 
5 | Humanized anti-ILT3 mAb ((52B8 VH1 M64V/VL7) L234A L235A D265S) IgG1/Kappa (antibody, also called mAb 28) heavy: not shown light: DIQLTQSPSSLSASVGDRVTITCRASEKVDSFGNSFMHWYQQKPGKAPKLLIYLTSNLDSGVPSRFSGSGSRTDFTLTISSLQPEDFATYYCQQNNEDPYTFGQGTKLEIKRTVAAPSVFIFPPSDEQLKSGTASVVCLLNNFYPREAKVQWKVDNALQSGNSQESVTEQDSKDSTYSLSSTLTLSKADYEKHKVYACEVTHQGLSSPVTKSFNRGEC |  | 5.6 | 0.57 |  | 5.56 | 0.57
6 | Humanized anti-ILT3 mAb ((52B8 VH1 M64V/VL5) L234A L235A D265S) IgG1/Kappa (antibody, also called mAb 26) heavy: not shown light: DIQLTQSPSSLSASVGDRVTITCRASEKVDSFGNSFMHWYQQKPGKAPKLLIYLTSNLDSGVPSRFSGSGSGTDFTLTISSLQPEDFATYYCQQNNEDPYTFGQGTKLEIKRTVAAPSVFIFPPSDEQLKSGTASVVCLLNNFYPREAKVQWKVDNALQSGNSQESVTEQDSKDSTYSLSSTLTLSKADYEKHKVYACEVTHQGLSSPVTKSFNRGEC |  | 4.9 | 0.61 |  | 4.9 | 0.61
7 | Humanized anti-ILT3 mAb ((52B8 VH1 M64V/VL6) L234A L235A D265S) IgG1/Kappa (antibody, also called mAb 27) heavy: not shown light: DIQMTQSPSSLSASVGDRVTITCRASEKVDSFGNSFMHWYQQKPGKAPKLLIYLTSNLDSGVPSRFSGSGSRTDFTLTISSLQPEDFATYYCQQNNEDPYTFGQGTKLEIKRTVAAPSVFIFPPSDEQLKSGTASVVCLLNNFYPREAKVQWKVDNALQSGNSQESVTEQDSKDSTYSLSSTLTLSKADYEKHKVYACEVTHQGLSSPVTKSFNRGEC |  | 10 | 0.92 |  | 10.3 | 0.92
8 | Humanized anti-ILT3 mAb ((52B8 VH1 M64V/VL8) L234A L235A D265S) IgG1/Kappa (antibody, also called mAb 29) heavy: not shown light: DIQLTQSPSSLSASVGDRVTITCRASEKVDSFGNSFMHWYQQKPGKAPKLLIYLTSNLDSGVPARFSGSGSRTDFTLTISSLQPEDFATYYCQQNNEDPYTFGQGTKLEIKRTVAAPSVFIFPPSDEQLKSGTASVVCLLNNFYPREAKVQWKVDNALQSGNSQESVTEQDSKDSTYSLSSTLTLSKADYEKHKVYACEVTHQGLSSPVTKSFNRGEC |  | 5.7 | 0.56 |  | 5.74 | 0.56
